Laboratory results from US20100113339A1 (Ablynx, published 2010).

Target: T1, mouse serum albumin (mouse, UniProt P07724 25-608)
T1 construct: also called Mouse albumin
Test: SPR Biacore 3000; mouse albumin against human/rhesus albumin as reference

T1 sequence (P07724 25-608 limits assumed): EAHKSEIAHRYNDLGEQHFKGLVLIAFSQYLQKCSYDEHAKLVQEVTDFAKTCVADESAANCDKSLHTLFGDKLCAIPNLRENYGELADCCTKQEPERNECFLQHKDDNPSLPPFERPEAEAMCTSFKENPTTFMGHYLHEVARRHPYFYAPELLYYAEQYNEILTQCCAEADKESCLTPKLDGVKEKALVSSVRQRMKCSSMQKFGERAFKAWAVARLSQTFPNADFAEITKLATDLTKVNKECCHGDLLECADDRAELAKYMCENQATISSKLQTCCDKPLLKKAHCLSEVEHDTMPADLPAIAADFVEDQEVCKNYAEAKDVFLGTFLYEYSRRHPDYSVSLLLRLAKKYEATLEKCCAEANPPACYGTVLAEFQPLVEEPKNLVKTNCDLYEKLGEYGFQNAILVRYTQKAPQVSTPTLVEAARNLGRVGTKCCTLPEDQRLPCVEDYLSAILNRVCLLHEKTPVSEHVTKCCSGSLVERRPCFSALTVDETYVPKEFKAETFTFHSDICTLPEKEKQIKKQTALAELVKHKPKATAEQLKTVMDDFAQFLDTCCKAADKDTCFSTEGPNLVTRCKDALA

B1: PMP6A8 (ALB2) (VHH)
VHH: AVQLVESGGGLVQGGGSLRLACAASERIFDLNLMGWYRQGPGNERELVATCITVGDSTNYADSVKGRFTISMDYTKQTVYLHMNSLRPEDTGLYYCKIRRTWHSELWGQGTQVTVSS
Question: How did the “factor of difference in affinity for human/rhesus versus mouse serum albumin” value turn out when B1 was run?
Answer: 400 fold
